From patent US12662524B2
Changes are numbered by the printed parent chain. Numbers in names are those of the source. Read-outs that look alike come from different tables or passages of the source. Blank lines part the entries; values can stand above or below the binder they belong to.

How the values were obtained:
[1] = target: AP C3-convertase (C3bBb) (Homo sapiens (Human)) (UniProt P01024)
[2] = target: AP C3-convertase (C3bBb) (Homo sapiens (Human)) (UniProt P01024); remark: listed apart in the source
[3] = substrate: CP C3-convertase (C4b2a) (Homo sapiens (Human)) (UniProt P0C0L4)

B2: D2M2-4 (L161K) (protein)
chain: CEVPTRLNSASLKQPYITQNYFPVGTVVEYECRPGYRREPSLSPKLTCLQNLKWSTAVEFCKKKSCPYIRDPLNGQAVPANGTYEFGYQMHFICNEGYYLIGEEILYCELKGSVAIWSGKPPICEKVKCTPPPKIKNGKHTFSEVEVFEYLDAVTYSCDPAPGPDPFSLIGESTIYCGDNSVWSRAAPECKVVKCRFPVVENGKQISGFGKKFYYKATVMFECDKGFYLDGSDTIVCDSNSTWDPPVPKCLKVL
- AP-DAA [2]: 3.4 fold
- CP-DAA [3]: 2 fold

B3: D2M2-4 (E136Q) (D2) (protein)
chain: B2 chain with E39Q, K128L
- AP-DAA [2]: 5.6 fold

B5: D2M2-4 (I134A) (protein)
chain: B2 chain with I101A, K128L
- AP-DAA [2]: 6.7 fold
- CP-DAA [3]: 2 fold

Results, then the binder that gave them:

- AP-DAA [1]: 12.5 fold
B1: D2M2-4 (Tetra) (protein)
chain: B2 chain with E39Q, Y68N, I101A

- AP-DAA [2]: 7.2 fold
B4: D2M2-4 (Y101N) (protein)
chain: B2 chain with Y68N, K128L
